Earlier results as cited in article PMC10935721.

Test system: Tyr32
Settings: reduced (non-radical) X32

Substance: α3Y (de novo three-helix bundle with Tyr32) (synthetic construct (de novo designed))
- pKa: 11.3 (±0.1)
